For data set [1], the target named is T1, phospholamban (PLN), pentameric (UniProt P61015).
T1 sequence: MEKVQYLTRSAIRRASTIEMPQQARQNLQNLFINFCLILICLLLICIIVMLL
The data set can be described thus: FP. To be noted: ACE Kd 0.5 ± 0.1 nM; also gel shift (FIG. 1C); MOPS, 0.1% C12E8, 1 mM MgCl2, 5 mM CaCl2, pH 7.0.

In data set [2] the target is T2, phospholamban (PLN), pentameric (UniProt P61015 P61015:1-52).
T2 sequence: T1 sequence
The data set can be described thus: FP; ACE Kd 6.5 ± 0.9 nM; MOPS, 0.1% C12E8, 1 mM MgCl2, 5 mM CaCl2, pH 7.0. Conditions: chain copies: 5 (stated pentameric); label: 5'-FAM.

The target of data set [3] is T2, phospholamban (PLN), pentameric. Put plainly: FP; ACE Kd 80 ± 40 nM; MOPS, 0.1% C12E8, 1 mM MgCl2, 5 mM CaCl2, pH 7.0. To be noted: chain copies: 5 (stated pentameric); label: 5'-FAM.
For data set [4] the target is unchanged. The data set can be described thus: FP; ACE Kd 24 ± 5 nM; MOPS, 0.1% C12E8, 1 mM MgCl2, 5 mM CaCl2, pH 7.0. Conditions: chain copies: 5 (stated pentameric); label: 5'-FAM.
The target is the same in data set [5]. The data set can be described thus: FP; ACE Kd 260 ± 180 nM; MOPS, 0.1% C12E8, 1 mM MgCl2, 5 mM CaCl2, pH 7.0. Conditions: chain copies: 5 (stated pentameric); label: 5'-FAM.
For data set [6] the target is unchanged. The data set can be described thus: FP; ACE Kd 1.2 ± 0.4 nM; MOPS, 0.1% C12E8, 1 mM MgCl2, 5 mM CaCl2, pH 7.0. Conditions: chain copies: 5 (stated pentameric); label: 5'-FAM.

In the case of “NNNNNNNNNNNNNNNNNNNNNNNNNNNNNNNNNNNNNNNNNNNNNNNNNNNNNNNNNNNNNNNNNNNNNNNNNNNNNNNN [ssDNA random 80-mer]”, the Kd in data set [1] was found to be 3.1 nM.

In data set [2], AGCAGCACAGAGGTCAGATG (ssDNA) [ssDNA 20-mer] returned a Kd of 1.8 nM.

As for AGTGATAGCTATGGT (ssDNA) [ssDNA 15-mer], the Kd in data set [3] amounted to 3.1 nM.

ACTGAGCATGGGATAACCGTTCTCAGACTT (ssDNA) [ssDNA 30-mer]: the Kd in data set [4] was found to be 21 nM.

For ATAGCTTGCA (ssDNA) [ssDNA 10-mer], binding in data set [5] was characterised by a dissociation constant (Kd) of 35 nM.

With AGCAGCACAGAGGTCAGATGCAGGTAGGGTCCTATGCGTGCTACCGTGAA (ssDNA) [ssDNA 50-mer], the Kd in data set [6] is 5 nM.

The values above are taken from patent US20140187615, “THERAPEUTIC POLYNUCLEOTIDES, COMPOSITIONS, AND METHODS” (Regents of the University of Minnesota, published 2014).
